Tested on: plasma proteins
Assay: Plasma proteins modulated between baseline and day 28 in responders (CR, VGPR, PR; n = 19), Example 6 (Table 13)
Format: in vivo, human
Details: plasma protein (OLINK NPX); responders (CR, VGPR, PR; n = 19); itacitinib 200 mg or 300 mg QD with corticosteroids; day 28 vs baseline
Summary of the method: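 Longitudinal comparison, day 28 versus baseline, with steroid-naive (N=10) and steroid-refractory (N=18) patients combined. Proteins measured by OLINK proximity extension, log2 normalized protein expression. Differences tested by t tests, ANOVA, Pearson correlation, P<0.05 significant.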

B1: CD200R1 (protein, UniProt Q8TD46 25-348, looked up)
Cell surface glycoprotein …: EGAAQPNNSLMLQTSKENHALASSSLCMDEKQITQNYSKVLAEVNTSWPVKMATNAVLCCPPIALRNLIIITWEIILRGQPSCTKAYKKETNETKETNCTDERITWVSRPDQNSDLQIRTVAITHDGYYRCIMVTPDGNFHRGYHLQVLVTPEVTLFQNRNRTAVCKAVAGKPAAHISWIPEGDCATKQEYWSNGTVTVKSTCHWEVHNVSTVTCHVSHLTGNKSLYIELLPVPGAKKSAKLYIPYIILTIIILTIVGFIWLLKVNGCRKYKLNKTESTPVVEEDEMQPYASYTEKNNPLYDTTNKVKASEALQSEVDTDLHTL
- Fold Change, Decreased Expression from Baseline to Day 28: −1.4752

B2: SERPINA9 (protein, UniProt Q86WD7 24-417, looked up)
Serpin A9: ANAPSAYPRPSSTKSTPASQVYSLNTDFAFRLYRRLVLETPSQNIFFSPVSVSTSLAMLSLGAHSVTKTQILQGLGFNLTHTPESAIHQGFQHLVHSLTVPSKDLTLKMGSALFVKKELQLQANFLGNVKRLYEAEVFSTDFSNPSIAQARINSHVKKKTQGKVVDIIQGLDLLTAMVLVNHIFFKAKWEKPFHPEYTRKNFPFLVGEQVTVHVPMMHQKEQFAFGVDTELNCFVLQMDYKGDAVAFFVLPSKGKMRQLEQALSARTLRKWSHSLQKRWIEVFIPRFSISASYNLETILPKMGIQNVFDKNADFSGIAKRDSLQVSKATHKAVLDVSEEGTEATAATTTKFIVRSKDGPSYFTVSFNRTFLMMITNKATDGILFLGKVENPTKS
- Fold Change, Increased Expression from Baseline to Day 28: 1.5418

B3: THY 1 (protein, UniProt P04216 20-130, looked up)
Thy-1 membrane glycoprotein: QKVTSLTACLVDQSLRLDCRHENTSSSPIQYEFSLTRETKKHVLFGTVGVPEHTYRSRTNFTSKYNMKVLYLSAFTSKDEGTYTCALHHSGHSPPISSQNVTVLRDKLVKC
- Fold Change, Decreased Expression from Baseline to Day 28: −1.2913

B4: KAZALD1 (protein, UniProt Q96I82 31-304, looked up)
Kazal-type serine protease …: RPSPGPDYLRRGWMRLLAEGEGCAPCRPEECAAPRGCLAGRVRDACGCCWECANLEGQLCDLDPSAHFYGHCGEQLECRLDTGGDLSRGEVPEPLCACRSQSPLCGSDGHTYSQICRLQEAARARPDANLTVAHPGPCESGPQIVSHPYDTWNVTGQDVIFGCEVFAYPMASIEWRKDGLDIQLPGDDPHISVQFRGGPQRFEVTGWLQIQAVRPSDEGTYRCLGRNALGQVEAPASLTVLTPDQLNSTGIPQLRSLNLVPEEEAESEENDDYY
- Fold Change, Increased Expression from Baseline to Day 28: 1.2609

B5: PRKRA (protein, UniProt O75569 1-313, looked up)
Interferon-inducible …: MSQSRHRAEAPPLEREDSGTFSLGKMITAKPGKTPIQVLHEYGMKTKNIPVYECERSDVQIHVPTFTFRVTVGDITCTGEGTSKKLAKHRAAEAAINILKANASICFAVPDPLMPDPSKQPKNQLNPIGSLQELAIHHGWRLPEYTLSQEGGPAHKREYTTICRLESFMETGKGASKKQAKRNAAEKFLAKFSNISPENHISLTNVVGHSLGCTWHSLRNSPGEKINLLKRSLLSIPNTDYIQLLSEIAKEQGFNITYLDIDELSANGQYQCLAELSTSPITVCHGSGISCGNAQSDAAHNALQYLKIIAERK
- Fold Change, Decreased Expression from Baseline to Day 28: −1.2761

B6: SERPINA12 (protein, UniProt Q8IW75 21-414, looked up)
Serpin A12: LKPSFSPRNYKALSEVQGWKQRMAAKELARQNMDLGFKLLKKLAFYNPGRNIFLSPLSISTAFSMLCLGAQDSTLDEIKQGFNFRKMPEKDLHEGFHYIIHELTQKTQDLKLSIGNTLFIDQRLQPQRKFLEDAKNFYSAETILTNFQNLEMAQKQINDFISQKTHGKINNLIENIDPGTVMLLANYIFFRARWKHEFDPNVTKEEDFFLEKNSSVKVPMMFRSGIYQVGYDDKLSCTILEIPYQKNITAIFILPDEGKLKHLEKGLQVDTFSRWKTLLSRRVVDVSVPRLHMTGTFDLKKTLSYIGVSKIFEEHGDLTKIAPHRSLKVGEAVHKAELKMDERGTEGAAGTGAQTLPMETPLVVKIDKPYLLLIYSEKIPSVLFLGKIVNPIGK
- Fold Change, Increased Expression from Baseline to Day 28: 1.567

B7: ITGB1BP2 (protein, UniProt Q9UKP3 1-347, looked up)
Integrin beta-1-binding …: MSLLCRNKGCGQHFDPNTNLPDSCCHHPGVPIFHDALKGWSCCRKRTVDFSEFLNIKGCTMGPHCAEKLPEAPQPEGPATSSSLQEQKPLNVIPKSAETLRRERPKSELPLKLLPLNISQALEMALEQKELDQEPGAGLDSLIRTGSSCQNPGCDAVYQGPESDATPCTYHPGAPRFHEGMKSWSCCGIQTLDFGAFLAQPGCRVGRHDWGKQLPASCRHDWHQTDSLVVVTVYGQIPLPAFNWVKASQTELHVHIVFDGNRVFQAQMKLWGVINVEQSSVFLMPSRVEISLVKADPGSWAQLEHPDALAKKARAGVVLEMDEEESDDSDDDLSWTEEEEEEEAMGE
- Fold Change, Decreased Expression from Baseline to Day 28: −1.8787

B8: PODXL (protein, UniProt O00592 23-558, looked up)
Podocalyxin: SPSPSPSPSQNATQTTTDSSNKTAPTPASSVTIMATDTAQQSTVPTSKANEILASVKATTLGVSSDSPGTTTLAQQVSGPVNTTVARGGGSGNPTTTIESPKSTKSADTTTVATSTATAKPNTTSSQNGAEDTTNSGGKSSHSVTTDLTSTKAEHLTTPHPTSPLSPRQPTSTHPVATPTSSGHDHLMKISSSSSTVAIPGYTFTSPGMTTTLLETVFHHVSQAGLELLTSGDLPTLASQSAGITASSVISQRTQQTSSQMPASSTAPSSQETVQPTSPATALRTPTLPETMSSSPTAASTTHRYPKTPSPTVAHESNWAKCEDLETQTQSEKQLVLNLTGNTLCAGGASDEKLISLICRAVKATFNPAQDKCGIRLASVPGSQTVVVKEITIHTKLPAKDVYERLKDKWDELKEAGVSDMKLGDQGPPEEAEDRFSMPLIITIVCMASFLLLVAALYGCCHQRLSQRKDQQRLTEELQTVENGYHDNPTLEVMETSSEMQEKKVVSLNGELGDSWIVPLDNLTKDDLDEEEDTHL
- Fold Change, Increased Expression from Baseline to Day 28: 1.2014

B9: CD48 (protein, UniProt P09326 27-220, looked up)
CD48 antigen: QGHLVHMTVVSGSNVTLNISESLPENYKQLTWFYTFDQKIVEWDSRKSKYFESKFKGRVRLDPQSGALYISKVQKEDNSTYIMRVLKKTGNEQEWKIKLQVLDPVPKPVIKIEKIEDMDDNCYLKLSCVIPGESVNYTWYGDKRPFPKELQNSVLETTLMPHNYSRCYTCQVSNSVSSKNGTVCLSPPCTLARS
- Fold Change, Decreased Expression from Baseline to Day 28: −1.6022

B10: CD244 (protein, UniProt Q9BZW8 22-370, looked up)
Natural killer cell receptor …: CQGSADHVVSISGVPLQLQPNSIQTKVDSIAWKKLLPSQNGFHHILKWENGSLPSNTSNDRFSFIVKNLSLLIKAAQQQDSGLYCLEVTSISGKVQTATFQVFVFESLLPDKVEKPRLQGQGKILDRGRCQVALSCLVSRDGNVSYAWYRGSKLIQTAGNLTYLDEEVDINGTHTYTCNVSNPVSWESHTLNLTQDCQNAHQEFRFWPFLVIIVILSALFLGTLACFCVWRRKRKEKQSETSPKEFLTIYEDVKDLKTRRNHEQEQTFPGGGSTIYSMIQSQSSAPTSQEPAYTLYSLIQPSRKSGSRKRNHSPSFNSTIYEVIGKSQPKAQNPARLSRKELENFDVYS
- Fold Change, Decreased Expression from Baseline to Day 28: −1.5176

B11: HCLS1 (protein, UniProt P14317 1-486, looked up)
Hematopoietic lineage …: MWKSVVGHDVSVSVETQGDDWDTDPDFVNDISEKEQRWGAKTIEGSGRTEHINIHQLRNKVSEEHDVLRKKEMESGPKASHGYGGRFGVERDRMDKSAVGHEYVAEVEKHSSQTDAAKGFGGKYGVERDRADKSAVGFDYKGEVEKHTSQKDYSRGFGGRYGVEKDKWDKAALGYDYKGETEKHESQRDYAKGFGGQYGIQKDRVDKSAVGFNEMEAPTTAYKKTTPIEAASSGTRGLKAKFESMAEEKRKREEEEKAQQVARRQQERKAVTKRSPEAPQPVIAMEEPAVPAPLPKKISSEAWPPVGTPPSSESEPVRTSREHPVPLLPIRQTLPEDNEEPPALPPRTLEGLQVEEEPVYEAEPEPEPEPEPEPENDYEDVEEMDRHEQEDEPEGDYEEVLEPEDSSFSSALAGSSGCPAGAGAGAVALGISAVAVYDYQGEGSDELSFDPDDVITDIEMVDEGWWRGRCHGHFGLFPANYVKLLE
- Fold Change, Decreased Expression from Baseline to Day 28: −1.455
